Consider 36 sequences from the supplement of paper PMC10567573.

± gives the standard deviation.

The nature of the series: protein stability index of a GFP-peptide fusion (GPS, HEK-293T) (PSI 1-6); higher = more stable. The settings on record: c terminus: a fixed tail appended.
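Also: 24-mer peptide tiles fused after GFP, lentivirally expressed, FACS-sorted into six equal bins by GFP/DsRed ratio, decoded by Illumina sequencing, PSI is the read-weighted mean bin number.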

Regarding APVPEPPKEEQQQALEQFAAAAAH [EPB41L3], the protein stability index by setting is: (treatment: DMSO) 5.54 ± 0.21; (treatment: MLN4924 1 uM, 8 h) 5.56 ± 0.17.
For AQMSTLHVSPPPSADPARGLPRSR [PDLIM4], in that order: 4.79 ± 0.2 and 4.86 ± 0.13.
In the same order, the values of ARELAITDSEHSDAEVSCTDNGTF [RETREG3] are 5.56 ± 0.28 and 5.592 ± 0.033.
For ARLTGVNDKMAEYTNSAGVPSLNA [GOSR1], in that order: 3.83 ± 0.22 and 4.01 ± 0.16.
Consider ARQAACCVARPGTPSLLRFALASL [ZSWIM9], for which the protein stability index was 2.33 ± 0.17 (treatment: DMSO) and 2.43 ± 0.32 (treatment: MLN4924 1 uM, 8 h).
Take ASFDRRGEYIYTGNAKGKILVLKT [RBBP5]: the protein stability index by setting is: (treatment: DMSO) 2.02 ± 0.19; (treatment: MLN4924 1 uM, 8 h) 2.29 ± 0.32.
Take ASGQSYSSREVFTSSSSSSSRQTR [KRT16]: the protein stability index runs as follows: (treatment: DMSO) 4.84 ± 0.15; (treatment: MLN4924 1 uM, 8 h) 4.8 ± 0.21.
On to ASSGQHHDFLSDLFSDDYGGKNCK [CEBPB], for which the protein stability index (treatment: DMSO) turned out to be 4.54 ± 0.35 and the protein stability index (treatment: MLN4924 1 uM, 8 h) was 4.66 ± 0.45.
For ATAFSKLKPESSQQPGQDALAVKA [ZBED1], in that order: 4.8 ± 0.5 and 5.21 ± 0.12.
On to ATAVGGGFFLLQLANHTGYIKVDW [FUNDC2], for which the protein stability index stood at 3.27 ± 0.8 (treatment: DMSO) and 3.08 ± 0.47 (treatment: MLN4924 1 uM, 8 h).
ATIENAQPILQIDNARLAADDFRT [KRT16] registered a protein stability index (treatment: DMSO) of 4.41 ± 0.17 and a protein stability index (treatment: MLN4924 1 uM, 8 h) of 4.52 ± 0.16.
For AVAAATAAVEGSGGSGGGSHHHHQ [KCNA4], in that order: 5.04 ± 0.33 and 5.07 ± 0.35.
Regarding AWDNPAYSGPPSPHGTLRVCTISS [PKD2L1], the protein stability index is, setting by setting: (treatment: DMSO) 2.93 ± 0.31; (treatment: MLN4924 1 uM, 8 h) 3.05 ± 0.37.
Take AWMLCKLLDKAGVPPGVVNIVFGT [ALDH8A1]: the protein stability index reads like this: (treatment: DMSO) 2.642 ± 0.019; (treatment: MLN4924 1 uM, 8 h) 2.77 ± 0.51.
AYLVTVRGNLSILAAVLVEPKLHT [OR3A1] gave a protein stability index (treatment: DMSO) of 3.21 ± 0.75 and a protein stability index (treatment: MLN4924 1 uM, 8 h) of 2.71 ± 0.68.
For AYVAMIPQCIKEEDTPSDNDSGIC [ATF4], in that order: 4.25 ± 0.41 and 4.46 ± 0.26.
For CAPYDSRLLGSARPELGAALGIYG [IRX6], in that order: 2.56 ± 0.37 and 2.13 ± 0.55.
With CCCCYQSKSLMTSVPMNGTSIQWK [EDNRA], the protein stability index stood at 2.2 ± 0.26 (treatment: DMSO) and 2.39 ± 0.31 (treatment: MLN4924 1 uM, 8 h).
Take CEPPSYRPMHHEDFKEDLKKFRTK [CDC25A]: the protein stability index reads like this: (treatment: DMSO) 4.89 ± 0.31; (treatment: MLN4924 1 uM, 8 h) 4.93 ± 0.28.
On to CGKAFYKKYRLTEHERAHRGEKPH [ZNF649], for which the protein stability index reads like this: (treatment: DMSO) 3.03 ± 0.33; (treatment: MLN4924 1 uM, 8 h) 3.18 ± 0.18.
For CHGMSSQLVRYSADGLLQLGPLGS [GALNT9], in that order: 2.32 ± 0.3 and 2.12 ± 0.21.
In the same order, the values of CILLSALGYLLLGAATNVFLFVLA [MFSD9] are 2.53 ± 0.45 and 2.77 ± 0.27.
As for CLDPIIYFFLCQPFREILCKKLHI [P2RY14], the protein stability index runs as follows: (treatment: DMSO) 2.74 ± 0.2; (treatment: MLN4924 1 uM, 8 h) 3.252 ± 0.02.
Take CLLTYGMTSSSAYYYTKVMSELFL [PKD2L1]: the protein stability index by setting is: (treatment: DMSO) 3.23 ± 0.41; (treatment: MLN4924 1 uM, 8 h) 2.83 ± 0.73.
For CNPLRYSVLMGHGVCMGLVAAACA [OR10K2], in that order: 3.37 ± 0.59 and 2.83 ± 0.3.
For CPATWGPSVEQAADSLDFDETFLA [FOXJ1], the protein stability index reads like this: (treatment: DMSO) 4.56 ± 0.15; (treatment: MLN4924 1 uM, 8 h) 4.61 ± 0.064.
For the sequence CQYLMATFVNVYIASFIRGPNPSK [CDS2], the protein stability index (treatment: DMSO) came out at 3.67 ± 0.3 and the protein stability index (treatment: MLN4924 1 uM, 8 h) is 3.4 ± 0.45.
For CRAPPPEARGIRAPPLPDSPQPLA [FCHO1], the protein stability index by setting is: (treatment: DMSO) 4.2 ± 0.6; (treatment: MLN4924 1 uM, 8 h) 4.3 ± 0.22.
In the same order, the values of CRELGYVEAKSWTASSSYGKGEGP [LOXL2] are 3.44 ± 0.41 and 3.45 ± 0.37.
For CSVHYVSDSGDGVYAGRPLSVIQM [FBXO34], in that order: 2.37 ± 0.78 and 2.75 ± 0.68.
For CTDSVVKYELMRPSNKAPLLVLCE [EHMT1], the protein stability index reads like this: (treatment: DMSO) 2.02 ± 0.26; (treatment: MLN4924 1 uM, 8 h) 2.22 ± 0.24.
For CVDLTITNLLEGAVAFMPEDITKG [AUP1], in that order: 2.29 ± 0.2 and 2.57 ± 0.33.
For CVNYEGQSAYDVADMLKQYFRDLP [DLC1], in that order: 2.54 ± 0.21 and 2.65 ± 0.32.
For CVTLVWRMPDEDSKIDHYVLEYRR [FSD1], in that order: 2.29 ± 0.43 and 1.93 ± 0.3.
As for CYETLPRGQCLLYNWEEERATNHL [SPAG8], the protein stability index stood at 2.92 ± 0.16 (treatment: DMSO) and 3.09 ± 0.23 (treatment: MLN4924 1 uM, 8 h).
For DAEMELRAKEEERLNKLRLESEGS [HACD3], in that order: 5.56 ± 0.28 and 5.3 ± 0.24.
